Values of other authors as cited in PMC10742151.
Like-named read-outs stand apart in the source and are kept apart here.

Assays:
[1] = biological target: CA125 (ovarian cancer biomarker antigen) (UniProt Q8WXI7); settings: AFM chip (DSP-activated APTES mica) with immobilized aptamer incubated in CA125 solution, then washed with 0.01% Emulgen 913; buffer, salt, pH and temperature …
[2] = biological target: CA125 (ovarian cancer biomarker antigen) (UniProt Q8WXI7); settings: AFM chip (DSP-activated APTES mica) with immobilized aptamer incubated in CA125 solution, then washed with 0.01% Emulgen 913; buffer, salt, pH and temperature …; remark: listed apart in the source

| Substance | Kd [1] | Kd [2] |
| --- | --- | --- |
| TAGGGAAGAGAAGGACATATGATGATCAACAACACAAGGGGGGGGGTATCTAGTTGACTAGTACATGACCACTTGA [apta#2 (apta#2.43)] | 239 nM | – |
| apta#3 (ATW0055, BasePair Biotechnologies) | – | 33.8 nM |
| TAGGGAAGAGAAGGACATATGATTTTAGGGAAGAGAAGGACTTTTATGCCGCCTTGACTAGTACATGACCACTTGA [apta#1 (apta#2.26)] | 166 nM | – |
